# ± gives the uncertainty stated by the source.
# Assay: protein stability index of a GFP-peptide fusion (yeast GPS) (PSI 1-4); higher = more stable; sorted into four equal gates, so the index is relative within each strain
# Details: doa10∆
# Summary of the method: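 Peptides tiling yeast proteins in 17-residue segments were fused downstream of GFP, with Cherry expressed from the same plasmid. As a pooled library in yeast, mid-log cultures grown in leucine-free medium were sorted into four equal gates by GFP/Cherry fluorescence ratio. Gate plasmids were PCR-amplified and Illumina-sequenced, and barcodes linked reads to strains. Each peptide received a protein stability index equal to the sum of each gate's read frequency times its gate number.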
row,Sequence,protein stability index
1,VDDDQDYVVAPGVNREI [GRR1],3.17 ± 0.13
2,VDENETVLESLGRLNKL [LIN1],2.79 ± 0.075
3,VDFQNDLKDILEKVVPL [BRR2],3.17 ± 0.18
4,VDIDDPDMMVDSFTMPN [SNF2],3.27 ± 0.11
5,VDLWSVGCIFAELIGLQ [SSN3],3.18 ± 0.097
6,VDNTTEQSNSRKRTRSE [YCG1],3.27 ± 0.18
7,VDRLKIGGSLARIALRH [RPS25A],2.66 ± 0.13
8,VDVLGTHSQTGTQQSNM [SIR4],3.12 ± 0.18
9,VDVLVISSHSHPVSLIS [RRP42],1.5 ± 0.046
10,VEESGEHVILGNGELYM [SNU114],3.31 ± 0.08
11,VEEVIKLVRDSFTSATE [PRE7],3.06 ± 0.078
12,VEHLLRDVRDQAAGGLS [RPN8],2.7 ± 0.13
13,VEIAYHKCDELITLFNK [RPO31],3.16 ± 0.19
14,VEINSSESDLDEDKNFP [ESC2],2.99 ± 0.063
15,VEISLVNGAKNLVVSGP [FAS1],2.76 ± 0.15
16,VEKGTPLGKILLKGDNI [SME1],3.58 ± 0.088
17,VEKGVNPTKSKEILDNI [ECM29],3.26 ± 0.14
18,VEKNEIGKMYDEYLGSH [NNF1],3.38 ± 0.17
19,VENLTVAQECIAFLKKQ [SMC1],2.12 ± 0.065
20,VEQDEGQCRTELEGSFN [YCS4],3.38 ± 0.081
21,VESPDKNVRFRVLQLLA [YCG1],1.09 ± 0.098
22,VFENYVKKTGENEISSL [CDC53],3.14 ± 0.069

row,Sequence,protein stability index
1,VFKATSSTDEESWFKAL [FAS1],2.92 ± 0.13
2,VFKLSTNLISKISLLRP [SWP82],2.11 ± 0.099
3,VFLKHSLSIKLATLHYQ [RPN6],2.22 ± 0.059
4,VFMLDTKRLGTPESVKP [RGR1],2.55 ± 0.075
5,VFTALLRLFINEEGDWS [ITC1],3.4 ± 0.29
6,VGDFLLQYANNAVISHA [SIN4],1.99 ± 0.074
7,VGRFSTISSADFIQNVG [ECM29],3.16 ± 0.1
8,VHDKIWCCRSGSAADTQ [PRE3],2.59 ± 0.07
9,VHESLVTQSNILSQQFD [SRB8],2.71 ± 0.07
10,VHEWEVSKPSLLHETND [PRP8],3.25 ± 0.11
11,VHKERHDGGFDLVHIKD [RPS4A],1.48 ± 0.084
12,VIAHLTVEALDFREKAL [RET1],2.79 ± 0.11
13,VIDLEKIKFDESSKLMT [BRR2],1.27 ± 0.1
14,VIFNDNVTETYSVYLIH [SIR3],2.35 ± 0.12
15,VIFVERATPATLTELKD [SRB2],2.84 ± 0.091
16,VIITDGTLLREDDNTPA [YDL088C/ASM4],2.94 ± 0.077
17,VILGADSRTTTGAYIAN [PRE3],2.72 ± 0.13
18,VILRKISMLVTQLQRGG [CSI1],1.31 ± 0.059
19,VIMALMLMSKIGDVDGL [POP5],1.49 ± 0.044
20,VITALKEPPRDRKKDKN [RPL12A],2.48 ± 0.08
21,VKAAINFSNVTDLTNNS [YIL149C/MLP2],2.49 ± 0.044
22,VKARHGGCDYIFSLLTG [CYT1],2.88 ± 0.1

# Same assay, conditions: pdr5∆
row,Sequence,protein stability index
1,VDDDQDYVVAPGVNREI [GRR1],3.13 ± 0.15
2,VDENETVLESLGRLNKL [LIN1],3.03 ± 0.073
3,VDFQNDLKDILEKVVPL [BRR2],2.88 ± 0.13
4,VDIDDPDMMVDSFTMPN [SNF2],2.86 ± 0.094
5,VDLWSVGCIFAELIGLQ [SSN3],3.16 ± 0.13
6,VDRLKIGGSLARIALRH [RPS25A],2.1 ± 0.07
7,VDVLGTHSQTGTQQSNM [SIR4],2.91 ± 0.17
8,VDVLVISSHSHPVSLIS [RRP42],1.53 ± 0.048
9,VEESGEHVILGNGELYM [SNU114],3.12 ± 0.066
10,VEEVIKLVRDSFTSATE [PRE7],3.33 ± 0.066
11,VEHLLRDVRDQAAGGLS [RPN8],1.99 ± 0.17
12,VEIAYHKCDELITLFNK [RPO31],3.01 ± 0.087
13,VEINSSESDLDEDKNFP [ESC2],2.66 ± 0.056
14,VEISLVNGAKNLVVSGP [FAS1],2.6 ± 0.1
15,VEKGTPLGKILLKGDNI [SME1],3.43 ± 0.093
16,VEKGVNPTKSKEILDNI [ECM29],3.5 ± 0.12
17,VEKNEIGKMYDEYLGSH [NNF1],3.3 ± 0.15
18,VENLTVAQECIAFLKKQ [SMC1],2.47 ± 0.07
19,VEQDEGQCRTELEGSFN [YCS4],3.48 ± 0.098
20,VESPDKNVRFRVLQLLA [YCG1],1.4 ± 0.12
21,VFENYVKKTGENEISSL [CDC53],2.74 ± 0.072
22,VFKATSSTDEESWFKAL [FAS1],3 ± 0.15

row,Sequence,protein stability index
1,VFKLSTNLISKISLLRP [SWP82],2.43 ± 0.1
2,VFLKHSLSIKLATLHYQ [RPN6],2.57 ± 0.067
3,VFMLDTKRLGTPESVKP [RGR1],2.64 ± 0.091
4,VFTALLRLFINEEGDWS [ITC1],2.08 ± 0.17
5,VGDFLLQYANNAVISHA [SIN4],1.79 ± 0.05
6,VGRFSTISSADFIQNVG [ECM29],2.65 ± 0.079
7,VHDKIWCCRSGSAADTQ [PRE3],2.92 ± 0.076
8,VHESLVTQSNILSQQFD [SRB8],3.09 ± 0.071
9,VHEWEVSKPSLLHETND [PRP8],3.05 ± 0.14
10,VHKERHDGGFDLVHIKD [RPS4A],1.94 ± 0.069
11,VIAHLTVEALDFREKAL [RET1],2 ± 0.058
12,VIDLEKIKFDESSKLMT [BRR2],1.43 ± 0.086
13,VIFNDNVTETYSVYLIH [SIR3],2.42 ± 0.09
14,VIFVERATPATLTELKD [SRB2],2.02 ± 0.063
15,VIITDGTLLREDDNTPA [YDL088C/ASM4],2.9 ± 0.081
16,VILGADSRTTTGAYIAN [PRE3],3.41 ± 0.11
17,VILRKISMLVTQLQRGG [CSI1],1.57 ± 0.056
18,VIMALMLMSKIGDVDGL [POP5],2 ± 0.053
19,VITALKEPPRDRKKDKN [RPL12A],2.61 ± 0.12
20,VKAAINFSNVTDLTNNS [YIL149C/MLP2],3.11 ± 0.049
21,VKARHGGCDYIFSLLTG [CYT1],3.02 ± 0.12

# Same assay, conditions: san1∆
row,Sequence,protein stability index
1,VDDDQDYVVAPGVNREI [GRR1],3.31 ± 0.2
2,VDENETVLESLGRLNKL [LIN1],2.88 ± 0.069
3,VDFQNDLKDILEKVVPL [BRR2],2.9 ± 0.15
4,VDIDDPDMMVDSFTMPN [SNF2],2.71 ± 0.085
5,VDLWSVGCIFAELIGLQ [SSN3],3.35 ± 0.036
6,VDNTTEQSNSRKRTRSE [YCG1],2.83 ± 0.1
7,VDRLKIGGSLARIALRH [RPS25A],2.01 ± 0.073
8,VDVLVISSHSHPVSLIS [RRP42],1.57 ± 0.062
9,VEESGEHVILGNGELYM [SNU114],3.3 ± 0.051
10,VEEVIKLVRDSFTSATE [PRE7],3.18 ± 0.052
11,VEHLLRDVRDQAAGGLS [RPN8],2.81 ± 0.17
12,VEIAYHKCDELITLFNK [RPO31],2.99 ± 0.078
13,VEINSSESDLDEDKNFP [ESC2],3.25 ± 0.052
14,VEISLVNGAKNLVVSGP [FAS1],2.3 ± 0.1
15,VEKGTPLGKILLKGDNI [SME1],3.38 ± 0.14
16,VEKGVNPTKSKEILDNI [ECM29],3.37 ± 0.25
17,VEKNEIGKMYDEYLGSH [NNF1],3.28 ± 0.12
18,VENLTVAQECIAFLKKQ [SMC1],2.42 ± 0.086
19,VEQDEGQCRTELEGSFN [YCS4],3.12 ± 0.14
20,VESPDKNVRFRVLQLLA [YCG1],1.18 ± 0.13
21,VFENYVKKTGENEISSL [CDC53],2.9 ± 0.07

row,Sequence,protein stability index
1,VFKATSSTDEESWFKAL [FAS1],2.75 ± 0.082
2,VFKLSTNLISKISLLRP [SWP82],2.13 ± 0.18
3,VFLKHSLSIKLATLHYQ [RPN6],1.71 ± 0.11
4,VFMLDTKRLGTPESVKP [RGR1],2.54 ± 0.11
5,VGDFLLQYANNAVISHA [SIN4],1.82 ± 0.074
6,VGRFSTISSADFIQNVG [ECM29],3.03 ± 0.08
7,VHDKIWCCRSGSAADTQ [PRE3],2.64 ± 0.081
8,VHESLVTQSNILSQQFD [SRB8],2.78 ± 0.054
9,VHKERHDGGFDLVHIKD [RPS4A],1.61 ± 0.15
10,VIAHLTVEALDFREKAL [RET1],2.12 ± 0.1
11,VIDLEKIKFDESSKLMT [BRR2],1.18 ± 0.25
12,VIFNDNVTETYSVYLIH [SIR3],2.72 ± 0.072
13,VIFVERATPATLTELKD [SRB2],2.4 ± 0.12
14,VIITDGTLLREDDNTPA [YDL088C/ASM4],2.94 ± 0.056
15,VILGADSRTTTGAYIAN [PRE3],3.12 ± 0.16
16,VILRKISMLVTQLQRGG [CSI1],1.55 ± 0.098
17,VIMALMLMSKIGDVDGL [POP5],1.84 ± 0.1
18,VITALKEPPRDRKKDKN [RPL12A],2.37 ± 0.1
19,VKAAINFSNVTDLTNNS [YIL149C/MLP2],3.35 ± 0.04
20,VKARHGGCDYIFSLLTG [CYT1],2.61 ± 0.086

# Same assay, conditions: ubr1∆
row,Sequence,protein stability index
1,VDDDQDYVVAPGVNREI [GRR1],3.29 ± 0.2
2,VDENETVLESLGRLNKL [LIN1],3.03 ± 0.053
3,VDFQNDLKDILEKVVPL [BRR2],2.69 ± 0.066
4,VDIDDPDMMVDSFTMPN [SNF2],3.15 ± 0.089
5,VDLWSVGCIFAELIGLQ [SSN3],3.17 ± 0.12
6,VDRLKIGGSLARIALRH [RPS25A],1.8 ± 0.096
7,VDVLGTHSQTGTQQSNM [SIR4],3.2 ± 0.067
8,VDVLVISSHSHPVSLIS [RRP42],1.67 ± 0.03
9,VEESGEHVILGNGELYM [SNU114],3.13 ± 0.057
10,VEEVIKLVRDSFTSATE [PRE7],3 ± 0.061
11,VEHLLRDVRDQAAGGLS [RPN8],1.07 ± 0.12
12,VEIAYHKCDELITLFNK [RPO31],2.96 ± 0.1
13,VEINSSESDLDEDKNFP [ESC2],3.16 ± 0.057
14,VEISLVNGAKNLVVSGP [FAS1],2.51 ± 0.21
15,VEKGTPLGKILLKGDNI [SME1],3.59 ± 0.078
16,VEKGVNPTKSKEILDNI [ECM29],3.62 ± 0.14
17,VEKNEIGKMYDEYLGSH [NNF1],3.18 ± 0.086
18,VENLTVAQECIAFLKKQ [SMC1],1.98 ± 0.051
19,VEQDEGQCRTELEGSFN [YCS4],3.49 ± 0.067
20,VESPDKNVRFRVLQLLA [YCG1],1.65 ± 0.13
21,VFENYVKKTGENEISSL [CDC53],3.15 ± 0.042

row,Sequence,protein stability index
1,VFKATSSTDEESWFKAL [FAS1],2.88 ± 0.084
2,VFKLSTNLISKISLLRP [SWP82],2.87 ± 0.088
3,VFLKHSLSIKLATLHYQ [RPN6],3.08 ± 0.055
4,VFMLDTKRLGTPESVKP [RGR1],2.8 ± 0.086
5,VGDFLLQYANNAVISHA [SIN4],1.49 ± 0.035
6,VGRFSTISSADFIQNVG [ECM29],2.72 ± 0.088
7,VHDKIWCCRSGSAADTQ [PRE3],2.65 ± 0.048
8,VHESLVTQSNILSQQFD [SRB8],3.02 ± 0.052
9,VHEWEVSKPSLLHETND [PRP8],3.23 ± 0.072
10,VHKERHDGGFDLVHIKD [RPS4A],1.84 ± 0.05
11,VIAHLTVEALDFREKAL [RET1],2.57 ± 0.062
12,VIDLEKIKFDESSKLMT [BRR2],1.32 ± 0.053
13,VIFNDNVTETYSVYLIH [SIR3],2.28 ± 0.12
14,VIFVERATPATLTELKD [SRB2],3.23 ± 0.098
15,VIITDGTLLREDDNTPA [YDL088C/ASM4],3.01 ± 0.042
16,VILGADSRTTTGAYIAN [PRE3],2.81 ± 0.13
17,VILRKISMLVTQLQRGG [CSI1],1.3 ± 0.045
18,VIMALMLMSKIGDVDGL [POP5],1.97 ± 0.047
19,VITALKEPPRDRKKDKN [RPL12A],1.85 ± 0.063
20,VKAAINFSNVTDLTNNS [YIL149C/MLP2],2.62 ± 0.04
21,VKARHGGCDYIFSLLTG [CYT1],2.72 ± 0.053

# — the supplement of paper PMC9732359
